Assay results as given in the nanobody polyreactivity screen of Harvey et al. (2022).

Assay: yeast display, Sf9 membrane polyspecificity reagent, FACS + sequencing; frameworks hold sequencing errors
Summary of the method: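 Polyreactivity labels are assigned by the sorting gate from which each nanobody was recovered. The gates were low and high (top ~1%), set on anti-HA fluorescence for expression and streptavidin fluorescence for reagent binding. Before sorting, galactose-induced (36–48 hours) yeast display cells were stained for 1 hour at 4 °C with 10% biotinylated, detergent-solubilized Sf9 membrane reagent.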

| Sequence | polyreactivity (PSR sort gate) |
| --- | --- |
| QVQLVESGGGLVQAGGSLRLSCAASGRIFVFYAMGWYRQAPGKERELVAAISKSVGPTYYADSVKGRFTISRDTAKNTVYLQMNSLKPADTAGYYCNKRSASDLWPQYGYWGQGTQVTVSS | low polyreactivity |
| QVQLVESGGRLVQAGGSLRLSCAASGFTFGAYAMGWYRQAPGKERELVATIRYSGDSTYYADSVKGRFTISRDNAKNTVYLQMNSLKPEDTAVSSCAAYSTEGGGSPDWFESFDYWGQGTQVTVSS | low polyreactivity |
| QVQLVESGRGLVQAGGSLRLSCAASGSTFRGNAMGWYRQATGKERELVAAITRSGGRTYYADSVKGRFTISRDNAKNTVYLQMNSLKPEDTAVYYCAVEYKYPGYDYWGPGTQVTVSS | high polyreactivity |
| QVQLEESGGGLVQAGGSLRLSCAASGFTFNYYTMGWYTQAPGKERELVATISTRGGSTYYADSVKGRFTISRDNAKNSVYLQMNSLKPEDTAVYYCNVGQKSVSSAYDYWGQGTEVTVSS | high polyreactivity |
| QVQLVESGGGLVQAGGSLRLSCAASGRTLVDYAMGWYRQAPGKERELVAAINFSGGSTNYADSVKGRFTISRDNAKNTVYLQMNSLKPEDTAVYYCNKEGRPDRDYWGQGTQVTVSS | low polyreactivity |
| QVQLVESGGGLVQAGGSLRLSCAASGFTFTRNAMGWYRQAPGKEMELVAGITFIGTSTYYADSVKGRFTISRDNAKNTVYLQMNSLKPEDTAVYYCAKEYDDYVYGYHYTRYGYWGQGTQVTVSS | low polyreactivity |
| QVQLVEAGGGLVQAGGSLRLSCAASGRTFRYYAMRWYRQATGKERELVAAITTGSSTYYADSVKGRFTISRDNAKNTVYLQMNSLKPEDTAVYYCAADHLYWGLEYESWGQGTQVTVSS | low polyreactivity |
| QVQLVESGGGLVQAGGSLRLSCAASGRTFRFYARGWYRQAPGKERELVAAIRNGGRTNYADSVKGRFTISRDNAKISVFLQMNSLKPEDTAVYYCAIQPGISYRHYDYWGQGTQVTVSS | high polyreactivity |
| QVQHVESGGGLDQAGGSLRLSCAASGSIYVGNEMGWSRQATGKETELVDTISWSGGSTYYADSVKGRFTISRDNAKNTVYLQMNSLKPEDTAVYYCAKTPYRRYRYGGYNYRTYDYWGQGTQVTVSS | low polyreactivity |
| QVQLVESGGGLVQAGGSLRLSCAASGRTFVRNAMGWYRQAPGKERELVAAISVDGSSTYYADSVKGRFTISRDNAKNTVYLQMNSLKPEDTAVYYCNADWDYRDFYDITYDYWGQGTQVTVSS | low polyreactivity |
| QVQLVESGGGLVQAGGSLRLSCAASGFTLGSNVMGWYRQAPGKERELVAGISQSGGRTFYADSVKGRFTISRDNAKNTVYLQMNSLKPEDTAVYYCNKGASPDDYDYWGQGTQVTVSS | low polyreactivity |
| QVQLVESGGGLVQAGGSLRLSCAASGSTFRVYAMGWYRQAPGNERELVAAISLSGGRTYYADSVKGRFTISRDNAKNTVYLQMNSLKPEDTAVYYCARRYRDYGRYGYWGQGTQVTVSS | high polyreactivity |
| QVQLVESGGGLVQAGGSLRLSCAASGNIFAYYAMGWYRQAPGKEREFVAAIRSSGVSTYYADSVKGRFTISRDNAKNTVYLQMNSLKPEDTAVYYCAADSITGGWLIVSPPFNYTYDYWGQGTQVTVSS | low polyreactivity |
| QVQLVESGGGLVQAGGSLRLSFAASGRTFVINAMGWYRQAPGKERELVAAITWRGGSTYYADSVKGRFTISRDNAKNTVYLQMNSLKPEDTAVYYCAARWFPWLQLKRYDYWGQGTQVTVSS | low polyreactivity |
| QVQLVESGGGIVQAGGSLRLSCAASGFIFHLYGMGWYRQAPGKERELVAAISSGGRTYYADSVKGRFTISRDNAKNTVSLQMNSLKPEDTAVYSCAVYVAYLYSYYYWGQGTQVNVSS | low polyreactivity |
| QVQRVESAGRLVQAGGSLRLSCAPSGRTFPGNDMGWYRQAPGKESEFVAAISSDDSTYYADSVKGRFTISRDNAKNTVYLQMNSLKPEDTGVYYSNAEYFEGYIGVPGSYWPYEYWGQGNQVTVSS | low polyreactivity |

| Sequence | polyreactivity (PSR sort gate) |
| --- | --- |
| QVQLVASGGGLVQAGGSLRISCAASGSIIYYYAMGWYRHAPRKERELVAAISTSSGRTYYADSVKGRFTISRDNAKNTVYLQMNSLKPEDTAVYYCANEIPFTRYTWPRYNYWGQGTQVTVSS | high polyreactivity |
| QVQLVESGGGLVQAGGSLRLSCAASGRTIYYYAMGGYRQAPGKEREFVAAISWHGGSTYYADSVKGRFTISRDNAKNTVYLQMNSLKPEDTAVYYCAAERYDRVGFDYWGQGTQVTVSS | low polyreactivity |
| QVQLVESGGGLVQAGGSLRLSCAASGGTFGRYAMGWYRQAPGKERELVADINWSGGGTYYADSVKGRFTISRDNAKNTVYLQMNSLKPEDTAVYYCGARVVEIFHWAGDYWGQGTQVTVSS | low polyreactivity |
| QVQLVESGGGLVQAGGSLRLSCAASGSTFYQYAMGWYRQAPGKERELVAAISKSGGSTYYADSVKGRFTISRDYSKNTVYLQMNSLKPDDTSVYYCATRWIKGRKMDYWGQGTQVTVSS | high polyreactivity |
| QVQLVESGGGLVQAGGSLRLSCAASGITFFRNARGWYRQAPGKEREFVATISRSSGSTYADSVKGRFTISRDNAKNTVYLQMNSLKPEDTAVYYCAAERTYSDSLSFDHWGQGTQVTVSS | low polyreactivity |
| QVQLVESGGGLVQAGGSLRLSCAASGRTFRYNTMGWYRQAPGTERELVATITGSGGSTYYADSVKGRFTISRDNAKNTVYLQMNSLKPEDTAVYYCNALFRLRAYAEMDYWGQGTQVTVSS | high polyreactivity |
| QVQLVESGGGLVQAGGSLRLSCDASGIIIRWYAMGWYRQAPGKERELVAAITSSGGRTYYADSVKGRFTISRDNAKNTVYLQMNSLKPEDTAVYYCAAQRYSHLYRGRFAYRYYYWGQGTQVTVSS | high polyreactivity |
| QVQLVESGGGLVQAGGSLRLSCAASGSIFWSNAMGWYRQAPGKELELVAAITTSDGSTYYADSVKGRFTISRDNAKNTVYLQMNSLKPEDNAVYYCAADASTWYTEEYWGQGTQVTVSS | low polyreactivity |
| QVQLVESGGGLVQAGGSLRLSCAASGSTFVYNAMGWYRQAPGKEREFVAVINWSGGRTYADSVKGRFTISRDNAKNTVYLQMISLKPEDTEVYYCIARRRTGYRPAMDYWGQGTEVTVSS | high polyreactivity |
| QVQLVESGGGLVQAGGSLRFSCAASGSTFSYYAMGWYRQAPRKEREFVAAMSWNGGSTYYADSVKGRYTISRDNAKNTVYLHMNSLKPEDTEVYYCAADFKYGYSHGFRQRLYDYWGQGTQVTVSS | low polyreactivity |
| QVQLVESGGGLVQAGGSLRLSFAPSGRTIDPNAMGWYRQAPGKERELVAAITRTGVRKYYADSVKGRFTISRDNAKNTVYLQMNSLKPEDTAVYYCAASYSGRQDRYPHYDYWGQGTQVTVSS | low polyreactivity |
| QVQLVESGGGLVQAGGSLRLSCAASGSTFSYYVMGWYRQAPGKERELVAAISGSGGSTYYSDSVKGRFTISRDNAKNTVYLQMNSLKPEDTAVYYCAANDGSEYDYWGQGTQVTVSS | high polyreactivity |
| QVQLVESGGGLVQAGGSLRLSCAASGSIFVRNGMGWYRQAPGKDRELVASITSGTITYYADSVKGRFTISRDNAKNTVYLQMNSLKPEDTAVYDCNAGWRSSRFKRPYFRERNYWGQGTQLTVSS | high polyreactivity |
| QVQLVESGGGLVQAGGSLRLSCAASGLIFYGYAMGWYRQAPGKERELVAAISSGGSTNYADSVKGRFTISRDNAKNTVYLQMNSLKPEDTAVYYCAAKPIFYRTILYYYWGQGTQVTVSS | high polyreactivity |
| QVKLVESGGGLVQAGGSLRLSCAASGSIFSMYTMGWYRQAPGKARELVAAIDRSGGSTYYADSVKGRFTISRDNAKNTVYLQMNSLKPEDTAVYYCATDSVYIYDPYWSSIIEYDYWGQGTQVTVSS | low polyreactivity |
